US5691196, “Recombinant nucleic acid containing a response element” (American Cyanamid Company)

Tests used:
[1] = target: T1, RXRalpha (Homo sapiens, UniProt P19793 P19793:1-462); assay: cell_activity; yeast lacZ reporter, two copies, 1e-6 M 9-cis-RA; 4-fold with all-trans-RA; details: protein: extract; tags: ubiquitin-fusion expression in yeast (YEpRXRalpha); label: 32P
[2] = target: T1, RXRalpha; assay: cell_activity; RA vs no RA; details: tags: pMT2-RXRalpha, CV-1 cells; 5' GATC overhang
[3] = target: T1, RXRalpha; assay: cell_activity; RA vs no RA; details: tags: pMT2-RXRalpha, CV-1 cells; 5' GATC overhang; remark: listed apart in the source
Protocol: (§1) Maintenance of CV-1 cells, transfection of plasmid DNA into these cells, normalization for plasmid DNA uptake by the cells and CAT and β-galactosidase (β-gal) assays are performed as previously described in the literature. The transfection mixtures contained 5 μg of each reporter plasmid, 5 μg of the β-gal expression vector pRSV-β-gal, the amounts of the pMT2-RXRα, pMT2-RARα, pMT2-RARβ, pMT2-ARP-1 and pMT2-Ear3-COUP-TF expression vectors and the appropriate amounts of the previously described control vector pMT2-UT to bring the final amount of the plasmid DNA in the transfection mixtures to a total of 17 μg. The transfection mixtures containing the expression vectors pMT2-HNF4 or pSG5-AR, 1 μg of the β-gal expression vector pCMV-β-gal instead of the vector pRSV-β-gal is used and the final amount of plasmid DNA in the transfection mixture is adjusted to a total of 13 μg as described above.
(§2) The CAT activity in extracts from these cells is normalized for DNA uptake by the cells by conventional methods, and expressed relative to the normalized CAT activity of the construct -41ALCAT in the absence of cotransfected receptor expression vectors or any ligands (Relative CAT Activity). The data represent the average of at least two independent experiments.

[4] = target: T1, RXRalpha; assay: cell_activity; CAT reporter, RA vs no RA; details: tags: pMT2-RXRalpha, CV-1 cells; 5' GATC overhang
Protocol: as §1, §2

[5] = target: T2, RARalpha (UniProt P10276 P10276:1-462); assay: cell_activity; two copies of M3; RA; 500 ng RARalpha vector reverses ARP-1 repression and exceeds no-ARP-1 level; details: tags: pMT2-RARalpha, CV-1 cells; 5' GATC overhang
T2 sequence: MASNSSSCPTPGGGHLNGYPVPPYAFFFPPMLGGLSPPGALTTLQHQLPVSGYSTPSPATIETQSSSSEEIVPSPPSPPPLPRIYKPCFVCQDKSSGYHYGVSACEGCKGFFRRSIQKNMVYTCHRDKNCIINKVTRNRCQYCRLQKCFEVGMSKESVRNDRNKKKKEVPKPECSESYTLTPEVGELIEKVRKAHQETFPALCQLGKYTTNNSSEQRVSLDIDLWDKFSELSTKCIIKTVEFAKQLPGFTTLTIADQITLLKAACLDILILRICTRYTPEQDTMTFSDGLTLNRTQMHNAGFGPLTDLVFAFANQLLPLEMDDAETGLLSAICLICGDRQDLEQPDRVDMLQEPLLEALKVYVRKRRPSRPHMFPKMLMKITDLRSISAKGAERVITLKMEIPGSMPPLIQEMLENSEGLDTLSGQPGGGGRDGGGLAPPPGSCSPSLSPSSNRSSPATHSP
Protocol: A reporter construct similar to [A5']-41ALCAT but containing two copies of a mutated version of site A5' in which the sequence CCT in the spacer between the two repeats in the site A5' has been changed to TTT (M3) is tested for its responsiveness to different amounts (indicated) of the RXRα or RARα expression vectors in the presence of RA and the indicated amounts of the ARP-1 expression vector by transient transfection assays into CV-1 cells as described in FIG. 8.

T1 sequence (P19793 whole entry, the tested form may be a part, one chain of several): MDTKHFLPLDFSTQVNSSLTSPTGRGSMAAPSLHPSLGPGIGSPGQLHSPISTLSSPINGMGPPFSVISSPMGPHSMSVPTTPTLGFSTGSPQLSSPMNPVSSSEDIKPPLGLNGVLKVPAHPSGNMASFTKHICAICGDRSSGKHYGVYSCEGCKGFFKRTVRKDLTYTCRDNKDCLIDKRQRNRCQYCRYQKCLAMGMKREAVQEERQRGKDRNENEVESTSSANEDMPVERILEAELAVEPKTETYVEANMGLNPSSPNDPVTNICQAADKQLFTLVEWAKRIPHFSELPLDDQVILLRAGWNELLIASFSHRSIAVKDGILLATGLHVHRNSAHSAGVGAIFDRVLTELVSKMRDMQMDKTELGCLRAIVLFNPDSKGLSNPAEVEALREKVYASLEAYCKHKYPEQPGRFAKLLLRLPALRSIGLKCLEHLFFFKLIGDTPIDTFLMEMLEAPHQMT

B1: apoAI site A (oligo A) (dsDNA)
DNA 1: ACTGAACCCTTGACCCCTGCCCT
DNA 2: AGGGCAGGGGTCAAGGGTTCAGT
activity [1]: 14 fold

B2: M9 (dsDNA)
DNA 1: ACTGAACTGTGACCCCTG
DNA 2: CAGGGGTCACAGTTCAGT
activity [2]: < 3 fold

B3: M2 (dsDNA)
DNA 1: ACTGAACTGATGACCCCTG
DNA 2: CAGGGGTCATCAGTTCAGT
activity [3]: < 3 fold

B4: site A5' (dsDNA)
DNA 1: ACTGAACCCTTGACCCCTG
DNA 2: CAGGGGTCAAGGGTTCAGT
activity [4]: 4.8 fold

B5: M10 (dsDNA)
DNA 1: ACTGACCTGTGACCCCTG
DNA 2: CAGGGGTCACAGGTCAGT
activity [2]: < 3 fold

B6: M3 (dsDNA)
DNA 1: ACTGAACTTTTGACCCCTG
DNA 2: CAGGGGTCAAAAGTTCAGT
activity [5]: > 2 fold

B7: M4 (dsDNA)
DNA 1: ACTGACCCCTTGACCCCTG
DNA 2: CAGGGGTCAAGGGGTCAGT
activity [4]: 7 fold
